First the molecules themselves.
T1: GST-PUB30 (plant U-box E3 ligase PUB30) (Arabidopsis, UniProt Q058P4 1-448)
T1 construct: U-box E3 ubiquitin ligase PUB30, Arabidopsis; source: recombinantly purified
T1 sequence (looked up): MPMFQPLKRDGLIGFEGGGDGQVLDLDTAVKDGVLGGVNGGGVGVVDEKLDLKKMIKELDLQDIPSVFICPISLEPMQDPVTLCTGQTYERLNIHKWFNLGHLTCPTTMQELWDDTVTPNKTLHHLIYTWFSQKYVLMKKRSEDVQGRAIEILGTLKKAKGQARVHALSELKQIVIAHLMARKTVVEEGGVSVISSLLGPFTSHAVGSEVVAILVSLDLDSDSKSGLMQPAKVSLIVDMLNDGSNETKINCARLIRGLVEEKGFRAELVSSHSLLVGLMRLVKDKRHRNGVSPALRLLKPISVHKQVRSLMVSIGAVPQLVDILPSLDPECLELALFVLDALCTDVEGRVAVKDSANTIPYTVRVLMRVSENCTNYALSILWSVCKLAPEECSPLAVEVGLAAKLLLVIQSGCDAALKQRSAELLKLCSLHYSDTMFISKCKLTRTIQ

T2: MBP-ER_CD_(T/S8E), phosphomimetic version (Arabidopsis, UniProt Q42371 602-976, Thr947 (T/S8E) | Ser950 (T/S8E) | Ser954 (T/S8E) | Ser955 (T/S8E) | Ser957 …)
T2 sequence: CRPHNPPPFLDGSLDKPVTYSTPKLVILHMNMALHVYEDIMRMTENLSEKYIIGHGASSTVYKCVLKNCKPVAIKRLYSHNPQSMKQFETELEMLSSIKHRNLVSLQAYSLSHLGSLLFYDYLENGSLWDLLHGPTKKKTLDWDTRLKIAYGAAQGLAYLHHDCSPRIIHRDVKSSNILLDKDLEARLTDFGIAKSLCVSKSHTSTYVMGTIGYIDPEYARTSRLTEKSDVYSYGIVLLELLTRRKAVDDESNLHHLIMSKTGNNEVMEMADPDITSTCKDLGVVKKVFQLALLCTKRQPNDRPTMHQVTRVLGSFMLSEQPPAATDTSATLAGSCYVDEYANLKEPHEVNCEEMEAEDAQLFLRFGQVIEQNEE

T3: MBP-ER_CD_(T/S8A), phosphonull version (Arabidopsis, UniProt Q42371 602-976, Thr947 (T/S8A) | Ser950 (T/S8A) | Ser954 (T/S8A) | Ser955 (T/S8A) | Ser957 …)
T3 sequence: T2 sequence with E346A, E349A, E353A, E354A, E356A, E358A, E371A, E374A

T4: MBP-ER_CD_(T/S8A), phosphonull version (Arabidopsis, UniProt Q42371 602-976, Thr947 (T/S8A) | Ser950 (T/S8A) | Ser954 (T/S8A) | Ser955 (T/S8A) | Ser957 …)
T4 construct: ERECTA (ER), Arabidopsis; The eight sites: six detected (Thr947, Ser950, Ser954, Ser955, Ser957, Ser972); source: recombinantly purified
T4 sequence (looked up): T2 sequence with E346A, E349A, E353A, E354A, E356A, E358A, E371A, E374A

B1: GST-PUB30 (plant U-box E3 ligase PUB30) (enzyme)
chain: T1 sequence (looked up)
B2: MBP-fused full-length ER cytoplasmic domain (MBP-ER_CD) (domain or fragment, Arabidopsis, UniProt Q42371 602-976, looked up)
chain: T2 sequence with E346T, E349S, E353S, E354S, E356S, E358S, E371S, E374S
notes: ERECTA (ER) LRR receptor kinase, Arabidopsis; full-length cytoplasmic domain (juxtamembrane domain, kinase domain, C-terminal tail); source: expressed and purified (recombinantly purified)
B3: GST-BKI1 (BRI1 KINASE INHIBITOR 1) (natural protein, Arabidopsis, UniProt Q9FMZ0 1-337, looked up)
chain: METNLQQVKNSSQTFSEKQNPKQEASPSPISSTCSSPSHDFSFTISLQPLSSSSKHISPTLRSPSKTTSSYQQTDPFAVDLSPADEIFFHGHLLPLHLLSHLPVSPRTSTGSYNDGFTLPVKDILPDQPTNNNNNTENAITNISTEAKDDNTEDKAEGEIRVKTKPIKSFSLFGLSKWRKGFESNEREQEQQQQKIKKPMSLDLSHAVKKYIRMLFQKRGNGTQFWNRRQTSSYSFSSSLMGPNGNSKTMINGSYNKRDLIRGRRGELFSAPASMRTSPTNSGHLRVSTAGLSSSSGSTSSSSSDSTMEELQAAIQAAIAHCKNSSAVDRDDKVKDS
notes: source: recombinantly purified
B4: MBP-ER_CD_(T/S8E), phosphomimetic version (domain or fragment, Arabidopsis, UniProt Q42371 602-976, looked up)
chain: T2 sequence
notes: ERECTA (ER), Arabidopsis; source: recombinantly purified

Numbering of substitutions follows the chain as printed. In names and notes the source's numbering stands. Read-outs that look alike come from different tables or passages of the source.

Assay [1] addresses GST-BKI1 (BRI1 KINASE INHIBITOR 1) (Arabidopsis) (UniProt Q9FMZ0). The assay is described as follows: BLI; recombinantly purified GST-BKI1 or GST-PUB30 and MBP-ER_CD variants at seven concentrations (156.25, 312.5, 625, 1,250, 2,500, 5,000 and 10,000 nM); representative of three independent experiments. A general note: Biolayer interferometry detects binding as a change in optical thickness at a sensor tip.

Assay [2] concerns the target T1, GST-PUB30 (plant U-box E3 ligase PUB30). The description is as above.
In assay [3] the target is T2, MBP-ER_CD_(T/S8E), phosphomimetic …. The assay is described as follows: BLI.
Assay [4] has as its target T3, MBP-ER_CD_(T/S8A), phosphonull version. The assay is described as follows: BLI.
For assay [5], the target named is T4, MBP-ER_CD_(T/S8A), phosphonull version. The assay is described as follows: BLI; recombinantly purified GST-BKI1 or GST-PUB30 and MBP-ER_CD variants at seven concentrations (156.25, 312.5, 625, 1,250, 2,500, 5,000 and 10,000 nM); representative of three independent experiments. The settings on record: both partners purified.
Assay [6] has as its target B2. Described as above. The settings on record: both partners purified.

By Kd is commonly meant the equilibrium constant for the complex coming apart. Regarding “MBP-ER_CD_(ΔCTα-Helix) (domain or fragment)”, the Kd in assay [1] turned out to be 47.7 µM; in assay [2], 0.805 µM.
As for B1, the Kd in assay [3] was found to be 0.194 µM; in assay [4] it was 9.5 µM.
With B2, in assay [2] (both partners purified), the Kd was found to be 0.393 ± 0.048 µM.
As for B3, the binding result in assay [5] was “binds”. Besides, the Kd in assay [6] worked out at 3.7 ± 0.7 µM; in assay [3] it was 18 µM; in assay [4] it was 3.8 µM.
Take B4: in assay [2] (both partners purified), the binding result is given as “binds”.

Source of the values: publication doi:10.1101/2024.09.20.612365, “Preventing Inappropriate Signals Pre- and Post-Ligand Perception by a Toggle-Switch Mechanism of ERECTA” (bioRxiv, 2024).
